Paper PMC9106297, “Structure of a TRAPPII-Rab11 activation intermediate reveals GTPase substrate selection mechanisms” (Science Advances, 2022)

T1: Trs120 (TRAPPII-specific subunit, in purified TRAPPII) (S. cerevisiae, UniProt Q04183 1-1289)
T1 construct: Trs120, S. cerevisiae, endogenous; also called Trs120 lid; source: endogenous, purified from S. cerevisiae as a subunit of TRAPPII
T1 sequence (looked up): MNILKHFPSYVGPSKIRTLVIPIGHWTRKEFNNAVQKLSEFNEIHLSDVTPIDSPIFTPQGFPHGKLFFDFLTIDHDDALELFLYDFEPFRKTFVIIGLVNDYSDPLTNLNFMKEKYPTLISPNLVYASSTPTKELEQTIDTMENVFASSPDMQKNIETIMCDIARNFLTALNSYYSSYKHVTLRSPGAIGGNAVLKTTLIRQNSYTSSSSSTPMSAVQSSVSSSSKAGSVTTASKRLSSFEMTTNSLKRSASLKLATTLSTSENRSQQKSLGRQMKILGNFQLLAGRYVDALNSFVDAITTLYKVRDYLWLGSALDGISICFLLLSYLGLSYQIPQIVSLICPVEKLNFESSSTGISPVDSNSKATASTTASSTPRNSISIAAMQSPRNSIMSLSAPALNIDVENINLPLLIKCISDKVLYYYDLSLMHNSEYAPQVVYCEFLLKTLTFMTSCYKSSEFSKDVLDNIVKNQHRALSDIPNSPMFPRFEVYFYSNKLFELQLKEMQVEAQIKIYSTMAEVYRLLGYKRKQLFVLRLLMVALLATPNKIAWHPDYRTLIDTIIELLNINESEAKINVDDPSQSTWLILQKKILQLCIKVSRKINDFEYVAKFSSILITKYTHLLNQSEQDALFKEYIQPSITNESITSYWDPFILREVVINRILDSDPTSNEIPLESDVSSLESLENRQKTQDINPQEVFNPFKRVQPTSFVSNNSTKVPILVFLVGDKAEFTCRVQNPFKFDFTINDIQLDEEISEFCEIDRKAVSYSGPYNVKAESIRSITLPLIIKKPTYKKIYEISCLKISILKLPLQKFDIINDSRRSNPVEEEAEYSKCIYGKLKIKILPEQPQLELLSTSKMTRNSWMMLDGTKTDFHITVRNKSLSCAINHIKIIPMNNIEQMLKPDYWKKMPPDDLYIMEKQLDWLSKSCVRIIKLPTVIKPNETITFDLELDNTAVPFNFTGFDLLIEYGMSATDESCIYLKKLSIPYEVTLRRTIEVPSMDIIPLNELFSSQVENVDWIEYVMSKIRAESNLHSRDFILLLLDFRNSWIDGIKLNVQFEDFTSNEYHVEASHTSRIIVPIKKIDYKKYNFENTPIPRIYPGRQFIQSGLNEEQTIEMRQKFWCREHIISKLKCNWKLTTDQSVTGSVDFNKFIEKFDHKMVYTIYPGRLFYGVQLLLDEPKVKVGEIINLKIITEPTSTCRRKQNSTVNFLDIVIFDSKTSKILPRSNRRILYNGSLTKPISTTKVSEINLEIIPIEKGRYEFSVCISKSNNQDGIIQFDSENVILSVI

T2: Trs31 (TRAPP core subunit, in purified TRAPPII) (S. cerevisiae, UniProt Q03337 1-283)
T2 construct: Trs31, S. cerevisiae, endogenous; source: endogenous, purified from S. cerevisiae as a subunit of TRAPPII
T2 sequence (looked up): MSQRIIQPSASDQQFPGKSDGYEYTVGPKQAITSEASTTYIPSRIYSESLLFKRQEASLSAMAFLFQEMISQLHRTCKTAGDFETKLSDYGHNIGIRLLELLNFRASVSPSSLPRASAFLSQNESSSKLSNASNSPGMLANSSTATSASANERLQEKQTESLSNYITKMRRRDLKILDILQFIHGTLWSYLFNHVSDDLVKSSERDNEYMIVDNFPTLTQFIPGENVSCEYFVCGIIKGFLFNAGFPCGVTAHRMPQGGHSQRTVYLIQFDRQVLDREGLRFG

B1: Rab11/Ypt32-7xHis (natural protein, S. cerevisiae, UniProt P51996 1-220, looked up)
chain: MSNEDYGYDYDYLFKIVLIGDSGVGKSNLLSRFTTDEFNIESKSTIGVEFATRTIEVENKKIKAQIWDTAGQERYRAITSAYYRGAVGALIVYDISKSSSYENCNHWLTELRENADDNVAVGLIGNKSDLAHLRAVPTDEAKNFAMENQMLFTETSALNSDNVDKAFRELIVAIFQMVSKHQVDLSGSGTNNMGSNGAPKGPTISLTPAPKEDKKKKSSN
notes: Ypt32 (yeast Rab11 paralog), S. cerevisiae; the C-terminal cysteines (residues 221 and 222) were substituted with the 7xHis tag; Made nucleotide-free with calf intestine alkaline phosphatase for the complex with TRAPPII; also called nucleotide-free Rab11/Ypt32; not shown: GST, N-terminal, cleaved; 7xHis, C-terminal, kept

Experiments:
Assay in all cases: cryo-EM structure; TRAPPII purified from yeast, incubated with tenfold molar excess of Rab11/Ypt32-7xHis and calf intestine alkaline phosphatase at 4°C overnight (nucleotide-free Rab), complex purified on Calmodulin Sepharose and by SEC; 10 mM tris (pH 8.0), 150 mM NaCl, 0.1% CHAPS, 1 mM Mg acetate, 1 mM dithiothreitol; single-particle cryo-EM
Conditions in all cases: both partners purified
[1] = target: T1, Trs120 (TRAPPII-specific subunit, in …)
Rab11/Ypt32-7xHis = target: B1
[2] = target: T2, Trs31 (TRAPP core subunit, in purified …)

binding result [1] | binding result (Rab11/Ypt32-7xHis) | binding result [2] | Binder
binds | – | – | Trs20 (TRAPP core subunit, in purified TRAPPII) (natural protein, S. cerevisiae, UniProt P38334 1-175, looked up, Trs20, S. cerevisiae, endogenous; source: endogenous, purified from S. cerevisiae as a subunit of TRAPPII) MPQYFAIIGKKDNPVYEIEFTNAENPQGFPQDLKELNPFILHASLDIVEDLQWQINPTSQLNGNGGNGSNGGGGFLRSRAVNNTDNCYLGKVDHFYGLAITAYISYSGMKFVMIHGNSANSSVVIDDNNMRSFYQEVHELYVKTLMNPFYKITDPIRSPAFDSRVRTLARKHLSK
– | binds | – | Trs23 (TRAPP core subunit, in purified TRAPPII) (natural protein, S. cerevisiae, UniProt Q03784 1-219, looked up, Trs23, S. cerevisiae, endogenous; source: endogenous, purified from S. cerevisiae as a subunit of TRAPPII) MAIETILVINKSGGLIYQRNFTNDEQKLNSNEYLILASTLHGVFAIASQLTPKALQLTQQTNIENTIPYIPYVGMSSNRSDTRNGGGNNNKHTNNEKLGSFKGDDFFKEPFTNWNKSGLRQLCTDQFTMFIYQTLTGLKFVAISSSVMPQRQPTIATTDKPDRPKSTSNLAIQIADNFLRKVYCLYSDYVMKDPSYSMEMPIRSNLFDEKVKKMVENLQ
binds | – | binds | B1
– | binds | – | Bet3 (TRAPP core subunit, in purified TRAPPII) (natural protein, S. cerevisiae, UniProt P36149 1-193, looked up, Bet3, S. cerevisiae, endogenous; source: endogenous, purified from S. cerevisiae as a subunit of TRAPPII) MVSTTQSRSLKAMGEEIWKNKTEKINTELFTLTYGSIVAQLCQDYERDFNKVNDHLYSMGYNIGCRLIEDFLARTALPRCENLVKTSEVLSKCAFKIFLNITPNITNWSHNKDTFSLILDENPLADFVELPMDAMKSLWYSNILCGVLKGSLEMVQLDCDVWFVSDILRGDSQTEIKVKLNRILKDEIPIGED
– | binds | – | Bet5 (TRAPP core subunit, in purified TRAPPII) (natural protein, S. cerevisiae, UniProt Q03630 1-159, looked up, Bet5, S. cerevisiae, endogenous; source: endogenous, purified from S. cerevisiae as a subunit of TRAPPII) MGIYSFWIFDRHCNCIFDREWTLASNSASGTINSKQNEEDAKLLYGMIFSLRSITQKLSKGSVKNDIRSISTGKYRVHTYCTASGLWFVLLSDFKQQSYTQVLQYIYSHIYVKYVSNNLLSPYDFAENENEMRGQGTRKITNRNFISVLESFLAPMVNQ
